No end group written: not given here.
T1: GST-TR2 (Homo sapiens, UniProt P13056)
T1 construct: pGEX-3x-TR2 were constructed by inserting full-length TR2 fragments to individual vectors; made in house; host or cells: E. coli BL21(DE3) pLysS
T1 sequence (P13056 1-603): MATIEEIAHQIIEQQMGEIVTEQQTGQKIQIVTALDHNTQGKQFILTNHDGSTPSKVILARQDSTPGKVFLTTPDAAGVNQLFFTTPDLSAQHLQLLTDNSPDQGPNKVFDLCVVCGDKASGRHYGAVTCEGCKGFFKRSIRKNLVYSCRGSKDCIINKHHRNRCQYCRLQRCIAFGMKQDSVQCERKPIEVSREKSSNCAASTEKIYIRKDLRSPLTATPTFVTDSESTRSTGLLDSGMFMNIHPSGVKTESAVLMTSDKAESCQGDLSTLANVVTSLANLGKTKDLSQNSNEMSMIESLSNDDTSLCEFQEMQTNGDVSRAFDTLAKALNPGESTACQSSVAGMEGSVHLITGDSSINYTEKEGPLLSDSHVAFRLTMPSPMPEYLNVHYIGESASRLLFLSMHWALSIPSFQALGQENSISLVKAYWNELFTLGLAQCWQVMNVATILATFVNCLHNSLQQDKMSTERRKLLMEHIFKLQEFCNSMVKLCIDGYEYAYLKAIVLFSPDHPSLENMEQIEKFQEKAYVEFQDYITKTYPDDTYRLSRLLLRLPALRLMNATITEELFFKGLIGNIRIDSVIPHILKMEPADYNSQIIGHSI

T2: ER homodimer (Homo sapiens, UniProt P03372)
T2 sequence (P03372 312-595): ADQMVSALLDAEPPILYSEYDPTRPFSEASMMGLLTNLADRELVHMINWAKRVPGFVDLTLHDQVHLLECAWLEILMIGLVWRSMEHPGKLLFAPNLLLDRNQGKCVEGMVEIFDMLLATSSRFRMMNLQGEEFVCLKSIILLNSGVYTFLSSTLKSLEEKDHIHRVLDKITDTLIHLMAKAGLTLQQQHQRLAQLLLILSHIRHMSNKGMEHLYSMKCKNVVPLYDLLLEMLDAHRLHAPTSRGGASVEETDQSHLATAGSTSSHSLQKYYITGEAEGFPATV

B1: TR2: human testicular orphan nuclear receptor 2, 603 amino acids (protein, UniProt P13056 1-603, looked up)
chain: T1 sequence (P13056 1-603)
modifications: full-length
notes: human testicular orphan nuclear receptor 2, 603 amino acids
B2: TR4: human testicular orphan nuclear receptor 4, SEQ ID NO:16; expressed from plasmid or in vitro translated (protein)
chain: MTSPSPRIQIISTDSAVASPQRIQGSEPASGPLSVFTSLNKEKIVTDQQTGQKIQIVTAVDASGSPKQQFILTSPDGAGTGKVILASPETSSAKQLIFTTSDNLVPGRIQIVTDSASVERLLGKTDVQRPQVVEYCVVCGDKASGRHYGAVSCEGCKGFFKRSVRKNLTYSCRSSQDCIINKHHRNRCQFCRLKKCLEMGMKMESVQSERKPFDVQREKPSNCAASTEKIYIRKDLRSPLIATPTFVADKDGARQTGLLDPGMLVNIQQPLIREDGTVLLATDSKAETSQGALGTLANVVTSLANLSESLNNGDTSEIQPEDQSASEITRAFDTLAKALNTTDSSSSPSLADGIDTSGGGSIHVISRDQSTPIIEVEGPLLSDTHVTFKLTMPSPMPEYLNVHYICESASRLLFLSMHRARSIPAFQGLGQDCNTSLVRACWNELFTLGLAQCAQVMSLSTILAAIVNHLQNSIQEDKLSGDRIKQVMEHIWKLQEFCNSMANWDIDGYEYAYLKAIVLFSPDHPGLTSTSQIEKFQEKAQMELQDYVQKTYSEDTYRLARILVRLPALRLMSSNITEELFFTGLIGNVSIDSIIPYILKMETAEYNGQITGVSL

Experiments:
GST-TR2 = biological target: T1, GST-TR2; assay: GST-TR2 pull-down assay; type: binding; conditions: for Interaction with GST-TR2 fusion protein: 35S methionine-labeled proteins, Example 4; for Interaction with GST-TR2 in pull-down assay / Direct interaction with GST-TR2 fusion protein: in vitro translated [35S]-labeled proteins; for Interaction with GST-TR2 in pull-down assay: Example 1; for Direct interaction with GST-TR2 fusion protein: Example 2
Description: Fusion proteins of GST-TR2, GST-ER segments and GST were obtained by transforming expressing plasmids into BL21(DE3) pLysS competent bacteria followed with 2-hour IPTG induction. GST-proteins were then purified by mixing Glutathione-Sepharose™ 4B (Pharmacia) into bacteria lysates on a rotating disk at 4° C. for 40 mm followed by washing with 1 mL NENT buffer (20 mM Tris-HCL (pH 8.0), 100 mM NaCl, 1 mM EDTA, 6 mM MgCl2, 1 mM Dithiothretiol, 8% Glycerol, 1 mM PMSF and 0.5% (v/v) NP-40). The ER, AR, RXRA., and TR2 proteins labeled with [35S] were generated in vitro by using the TNT reticulocyte lysate system (Promega). For the in vitro interaction, the glutathione-Sepharose bound GST-proteins were resuspended with 100 μl of interaction buffer (20 mM HEPES pH 7.9, 150 mM KCl, 5 mM MgCl2. 0.5 mM EDTA, 0.5 mM Dithiothretiol, 0.1% (v/v) NP-40, 0.1% (w/v) BSA and 1 mM PMSF) and mixed with 5 μl of […] at 4° C. for 3 h. After extensive washes with NENT buffer, the bound proteins were separated on an SDS/8% PAGE and visualized by using autoradiography.
GST alone and GST fusion proteins were purified by Glutathione-Sepharose 4B beads as instructed by manufacturer (Amersham Pharmacia). The pull-down assay was performed with 5 μl of in vitro-translated [^35S]-labeled proteins as described previously (Yeh, S. et al. (2000) Proc. Natl. Acad. Sci. USA 97, 11256-61).
GST control protein and GST-TR2 fusion protein were purified by glutathione-sepharose 4B beads as described by manufacture (Amersham. Biosciences). Five microliters of in vitro-translated 35S-methionine-labeled proteins was used to perform the Pull-down assay as described previously [4F].

ER homodimer = biological target: T2, ER homodimer; assay: ER homodimer formation, competition GST pull-down (GST-ER-LBD with [35S]-ER); conditions: for ER homodimer formation (GST-ER-LBD with [35S]-ER): Example 2, FIG. 16B

Molecule | Interaction with GST-TR2 fusion protein (GST-TR2) | Interaction with GST-TR2 in pull-down assay (GST-TR2) | Direct interaction with GST-TR2 fusion protein (GST-TR2) | ER homodimer formation (GST-ER-LBD with [35S]-ER) (ER homodimer) | also measured
AR: androgen receptor, SEQ ID NO:31 | able to interact | can interact well | directly interact | – | –
ER-#6: interaction blocker, ER fragment aa 312-340, as HA-tagged peptide, expression plasmid or cleaved peptide (ADQMVSALLDAEPPILYSEYDPTRPFSEA; also: HA tag (position not given here); UniProt P03372 312-340, looked up, fragment) | – | – | – | rescued | Interaction of GST-TR2 with [35S]-labeled ER (GST-TR2; increasing amounts of HA-ER-#6 peptide, absence of E2): inhibited
RXR: retinoid X receptor, another member of the steroid receptor superfamily | not able to interact | not | not | – | –
B1 | – | – | – | interrupted | –
B2 | – | – | – | – | ER-ER homodimerization (GST-ER-LBD with [35S] ER) (ER homodimer; increasing amounts of TR4, Example 3): inhibit

From patent US20030235860A1, “Interactions between AR, ER, TR2, and TR4” (priority 1999, published 2003)
